Experimental data: paper PMC5161677
Changes are numbered by the printed parent chain.

Key:
DnaA R357A = target: T1, DnaA R357A (Caulobacter crescentus, UniProt B8GWW5 1-490, R357A); assay: EMSA
T1 sequence: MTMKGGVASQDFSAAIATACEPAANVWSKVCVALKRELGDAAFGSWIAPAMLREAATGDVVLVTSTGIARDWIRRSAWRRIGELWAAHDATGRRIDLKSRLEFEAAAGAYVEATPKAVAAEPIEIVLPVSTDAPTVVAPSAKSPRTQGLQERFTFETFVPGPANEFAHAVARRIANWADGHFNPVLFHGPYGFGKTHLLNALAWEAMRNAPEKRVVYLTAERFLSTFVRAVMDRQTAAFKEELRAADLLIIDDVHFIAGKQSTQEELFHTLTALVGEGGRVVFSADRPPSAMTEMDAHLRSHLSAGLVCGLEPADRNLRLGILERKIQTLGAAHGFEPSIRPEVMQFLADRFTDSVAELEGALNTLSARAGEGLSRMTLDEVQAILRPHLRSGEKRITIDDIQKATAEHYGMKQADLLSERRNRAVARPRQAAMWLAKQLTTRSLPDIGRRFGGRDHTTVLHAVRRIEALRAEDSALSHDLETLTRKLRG

DnaA = target: T2, DnaA (Caulobacter crescentus, UniProt B8GWW5 1-490); assay: EMSA
T2 sequence: T1 sequence with A357R

B1: G1 DnaA box dsDNA (dsDNA)
DNA 1: AACGGATGATCCACAGGAGAG
DNA 2: CTCTCCTGTGGATCATCCGTT
Q: What does the source list for B1?
A: binding result (DnaA R357A): binds; binding result (DnaA): binds
